Test results as given in paper PMC3367199.

T1: rCRR22 (UniProt Q3E6Q1 47-809)
T1 sequence: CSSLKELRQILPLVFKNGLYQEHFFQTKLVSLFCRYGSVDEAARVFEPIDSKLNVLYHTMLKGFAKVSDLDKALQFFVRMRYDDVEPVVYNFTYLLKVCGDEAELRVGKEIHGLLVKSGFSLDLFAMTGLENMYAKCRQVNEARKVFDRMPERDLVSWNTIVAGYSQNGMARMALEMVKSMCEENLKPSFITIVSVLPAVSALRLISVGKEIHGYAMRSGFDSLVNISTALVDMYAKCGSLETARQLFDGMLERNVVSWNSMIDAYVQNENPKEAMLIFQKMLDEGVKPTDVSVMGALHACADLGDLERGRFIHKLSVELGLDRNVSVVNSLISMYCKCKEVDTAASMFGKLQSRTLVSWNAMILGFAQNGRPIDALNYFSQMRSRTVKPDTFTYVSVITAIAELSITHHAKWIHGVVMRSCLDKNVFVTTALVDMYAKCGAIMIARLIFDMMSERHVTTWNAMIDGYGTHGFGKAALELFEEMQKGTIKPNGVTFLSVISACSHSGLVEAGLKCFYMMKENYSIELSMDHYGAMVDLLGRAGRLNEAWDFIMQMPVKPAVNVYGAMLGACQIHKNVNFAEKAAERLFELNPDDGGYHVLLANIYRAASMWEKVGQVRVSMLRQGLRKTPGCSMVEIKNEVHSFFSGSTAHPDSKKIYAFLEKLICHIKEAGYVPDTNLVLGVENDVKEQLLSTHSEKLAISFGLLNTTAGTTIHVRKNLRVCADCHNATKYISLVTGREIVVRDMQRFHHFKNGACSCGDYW

B1: ndhB9L (ssRNA)
RNA: GCUUUUCUUUCUGUUACUUCGAAAGUAGCUGCUUCAGCUUCAGCCACUCGA
B2: ndhG1L (ssRNA)
RNA: CCUGGACCAAUACAUGAUUUUCUUUUAGUUUUUCUGGGAUCCGGUCUUCUA
B3: rpoB3L (ssRNA)
RNA: GGUUCAAGUUAUAACCCAGAAAUAAUUCGUGUAUAUAUUUCACAGAAACGU
B4: ndhD5L (ssRNA)
RNA: GUCGGUACAAUCCAAAUAAUUUAUGCAGCUUCAACAUCUCCCGGUCAACGU
B5: ndhB7L (ssRNA)
RNA: AUCACUGUAGGAAUUGGGUUCAAGCUUUCCCUAGCCCCUUCUCAUCAAUGG

target: T2, rOTP82 (UniProt Q9LN01 41-741); experiment: EMSA
T2 sequence (Q9LN01 41-741): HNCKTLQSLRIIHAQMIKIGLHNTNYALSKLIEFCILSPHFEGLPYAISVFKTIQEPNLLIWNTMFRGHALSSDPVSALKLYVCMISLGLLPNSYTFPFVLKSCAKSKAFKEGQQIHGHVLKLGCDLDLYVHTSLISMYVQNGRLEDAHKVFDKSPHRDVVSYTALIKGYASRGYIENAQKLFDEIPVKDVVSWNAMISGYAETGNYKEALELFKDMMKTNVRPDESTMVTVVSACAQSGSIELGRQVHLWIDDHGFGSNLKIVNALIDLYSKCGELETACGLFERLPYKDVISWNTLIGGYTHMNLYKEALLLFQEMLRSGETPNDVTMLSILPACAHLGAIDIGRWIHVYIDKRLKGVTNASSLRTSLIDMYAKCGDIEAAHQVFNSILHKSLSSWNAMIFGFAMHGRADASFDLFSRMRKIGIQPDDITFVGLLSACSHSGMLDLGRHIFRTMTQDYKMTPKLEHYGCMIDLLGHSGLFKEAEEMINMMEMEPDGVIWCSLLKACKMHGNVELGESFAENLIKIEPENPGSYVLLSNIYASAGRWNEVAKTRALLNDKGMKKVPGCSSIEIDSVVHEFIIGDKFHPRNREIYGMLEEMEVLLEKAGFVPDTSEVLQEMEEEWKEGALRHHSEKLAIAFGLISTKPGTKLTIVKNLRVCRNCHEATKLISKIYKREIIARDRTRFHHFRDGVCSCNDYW

Binder | binding result
GACCUGGUGUAUCUUGUCUUUACCACGAAUGAUUUU (ssRNA) [ndhD1] | no binding
GCAAUGUACAGCGGUCAAAUAGGAUCAUUUUCUUCU (ssRNA) [ndhD2] | no binding

target: T1, rCRR22; experiment: EMSA

Binder | binding result
GACCUGGUGUAUCUUGUCUUUACCACGAAUGAUUUU (ssRNA) [ndhD1] | no binding
UAACUGUCCUAGCUCUACCG (ssRNA) [ycf1] | no binding

target: T2, rOTP82; experiment: EMSA; remark: another data set of the same source

Binder | Kd [nM] | binding result
CUGCUUCAGCUUC (ssRNA) [ndhB9S2] | 119 | –
UAGUUUUUCUGGGAUC (ssRNA) [ndhG1S] | 12.2 | –
UUUUUCUGGGAUC (ssRNA) [ndhG1S2] | 167 | –
B1 | – | binds
UAGCUGCUUCAGCUUC (ssRNA) [ndhB9S] | 9.7 | –
B2 | – | binds

target: T1, rCRR22; experiment: EMSA; remark: another data set of the same source

Binder | Kd [nM] | binding result
GCUUUCCCUAGCCCCUUC (ssRNA) [ndhB7S2] | 70 | –
B3 | – | binds
UUAUGCAGCUUCAACAUCUCC (ssRNA) [ndhD5S] | 10.8 | –
CAAGCUUUCCCUAGCCCCUUC (ssRNA) [ndhB7S] | 9.2 | –
UGCAGCUUCAACAUCUCC (ssRNA) [ndhD5S2] | 96.2 | –
AAUAAUUCGUGUAUAUAUUUC (ssRNA) [rpoB3S] | 13.5 ± 2.5 | –
B4 | – | binds
AAUUCGUGUAUAUAUUUC (ssRNA) [rpoB3S2] | 18.9 ± 3.1 | –
B5 | – | binds
